One molecule from US20140377280A1 (ROCKEFELLER UNIVERSITY, published 2014) can be followed below.

This experiment addresses T1, α2,6-sialylated recombinant human IgG1 Fc (sFc), prepared by papain cleavage of full-length IDEC-114 antibody … (human, UniProt P0DOX5 227-449 = IgG part, limits assumed, N-linked glycan at Asn297 with terminal α2,6-linked sialic acid (in vitro galactosylation and sialylation)).
T1 construct: also called α2,6-sFc; α2,6 sFc
In words: SPR steady-state affinity, immobilized DC-SIGN ECD.

Experimental: To determine the interaction between various recombinant Fc preparations to soluble hDC-SIGN or hFcγRs, steady-state affinity measurements were recorded on a Biacore T100 sensor. Receptors, diluted to 20-50 μg/mL in NaOAc pH 5.0, were immobilized on CMS chips at high density (2000 RU) by standard amine coupling. For hDC-SIGN interactions, injections were performed at a flow rate of 20 μL/min with commercially available HBS-P+ buffer adjusted to pH 9.0 and supplemented with 2 mM CaCl₂ and 500 mM NaCl. For hFcγRs interactions, injections were performed at a flow rate of 20 μL/min with commercially available HBS-EP+ buffer. Surfaces were regenerated with a short pulse of 50 mM NaOH. Kd values were calculated after subtraction of background binding to a control flow cell using Biacore Evaluation software.

B1: soluble human DC-SIGN extracellular domain with N-terminal strep tag (receptor, UniProt Q9NNX6 59-404, looked up)
chain: QVSKVPSSISQEQSRQDAIYQNLTQLKAAVGELSEKSKLQEIYQELTQLKAAVGELPEKSKLQEIYQELTRLKAAVGELPEKSKLQEIYQELTWLKAAVGELPEKSKMQEIYQELTRLKAAVGELPEKSKQQEIYQELTRLKAAVGELPEKSKQQEIYQELTRLKAAVGELPEKSKQQEIYQELTQLKAAVERLCHPCPWEWTFFQGNCYFMSNSQRNWHDSITACKEVGAQLVVIKSAEEQNFLQLQSSRSNRFTWMGLSDLNQEGTWQWVDGSPLLPSFKQYWNRGEPNNVGEEDCAEFSGNGWNDDKCNLAKFWICKKSAASCSRDEEQFLSPAPATPNPPPA
notes: extracellular domain; also called DC-SIGN ECD; soluble hDC-SIGN; not shown: N-terminal strep tag
For the molecule B1, the Kd (as a rule, the constant that tells how readily two partners part at equilibrium) is around 1300 nM.
